This note sets out measurements from PMC10470402 (iScience, 2023).

Sequences and labels used below:
B1: S. pombe SmD1/SmD2 subcomplex, HT-tag removed (complex)
chain 1: not shown
chain 2: MADLVDKPRSELSEIELARLEEYEFSAGPLSVLQQAVKNHDQVLINCRNNKKLLARVKAFDRHSNMVLENVKEMWTEKKRTASGKKGKAINKDRFISKMFLRGDGVVLVVRIPSA
B2: S. pombe SmD3 (1-83)/SmB (1-93) subcomplex, HT-tag removed (complex)
chain 1: MSLCIKLLHETQGHIVTMELENGSTYRGKLIEAEDNMNCQMRDISVTARDGRVSHLDQVYIRGSHIRFLIVPDMLRNAPMFKV
chain 2: MGTTKMVSLLNHSLNVTTKDGRTFVGQLLAFDGFMNLVLSDCQEYRHIKKQNVPSNSVYEEKRMLGLVILRGEFIVSLSVQGPPPMDPSMRGS
B3: S. pombe SmF/SmE/SmG subcomplex, HT-tag removed (complex)
chain 1: not shown
chain 2: MSGRVQKVMIPPINFIFKLLQQHTPVSIWLFEQTDIRLQGQIRGFDEFMNIVLDDAVQVDAKNNKRELGRILLKGDNITLIQAI
chain 3: MSKAGAPDLKKYLDRQVFVQLNGSRKVYGVLRGYDIFLNIVLEDSIEEKVDGEKVKIGSVAIRGNSVIMIETLDKMT
B4: S. pombe HT-ICln (residues 1-160) (domain or fragment)
chain: MITKIDSLPKDLIRKVENGEKLLPNQEIVYFEEKTVPYKIRSDEESFPLGKLITLLVTSQSFILFDEEQNSGWKIPYETITLHAKQSKDKPYVYVQLEGEAIRPLLDHILKFERSSGTLHEAPSTEDENEFTDDFLELTLYVTDVDSCYQALCTCQSLHP
B5: S. pombe SMN, full length, HT-tag removed (natural protein)
chain: MDQSQKEVWDDSELRNAFETALHEFKKYHSIEAKGGVSDPDSRLDGEKLISAARTEESISKLEEGEQMINQQTETTLEGDTHIQQFADNKGLSDEKPETRAAETHQEFMEVPPPIRGLTYDETYKKLIMSWYYAGYYTGLAEGLAKSEQRKD

Data set [1] addresses B4. Briefly: pull-down.
Data set [2] has as its target T1, S. pombe Gemin2/HT-SMNp complex (S. pombe, UniProt P0CU08 1-235; Q09808 1-35).
T1 sequence 1: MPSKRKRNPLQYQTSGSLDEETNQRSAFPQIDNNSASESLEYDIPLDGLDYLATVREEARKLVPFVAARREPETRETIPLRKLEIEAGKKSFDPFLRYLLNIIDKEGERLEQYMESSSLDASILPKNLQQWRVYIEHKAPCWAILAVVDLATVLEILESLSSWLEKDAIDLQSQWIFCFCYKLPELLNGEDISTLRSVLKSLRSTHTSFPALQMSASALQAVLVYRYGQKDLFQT
T1 sequence 2: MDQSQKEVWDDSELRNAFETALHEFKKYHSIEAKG
Briefly: pull-down.

The target of data set [3] is B4. Briefly: pull-down. The source holds these as a separate data set.
For data set [4], the target named is T1, S. pombe Gemin2/HT-SMNp complex. As to the kind of experiment: pull-down. This is another data set of the same source.
The data set “SEC” concerns the molecule itself. As to the kind of experiment: SEC. (In general: In gel filtration, larger molecules generally elute earlier.)
Data set [5] concerns the target B1. As to the kind of experiment: SEC.
The target of data set [6] is B2. Briefly: SEC.
In data set [7] the target is S. pombe SmD1/HT-SmD2 subcomplex (S. pombe, UniProt O42661 1-117; O14036 1-115). As to the kind of experiment: SEC + other: ion-exchange chromatography.
Sequence of S. pombe SmD1/HT-SmD2 subcomplex (O42661 whole entry, one chain of several): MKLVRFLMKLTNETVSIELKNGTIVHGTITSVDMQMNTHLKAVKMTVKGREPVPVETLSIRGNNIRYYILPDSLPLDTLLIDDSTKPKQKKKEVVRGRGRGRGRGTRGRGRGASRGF
For data set [8], the target named is T2, S. pombe Gemin6/Gemin7/Gemin8 complex, HT-tag removed (S. pombe, UniProt G2TRK8 1-93; G2TRR1 1-91; Q9USY8 1-166).
T2 sequence 1: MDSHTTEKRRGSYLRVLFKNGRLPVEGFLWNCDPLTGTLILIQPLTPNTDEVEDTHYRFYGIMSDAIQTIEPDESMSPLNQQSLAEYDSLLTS
T2 sequence 2: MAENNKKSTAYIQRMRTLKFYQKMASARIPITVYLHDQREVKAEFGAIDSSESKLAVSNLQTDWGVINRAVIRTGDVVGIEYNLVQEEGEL
T2 sequence 3: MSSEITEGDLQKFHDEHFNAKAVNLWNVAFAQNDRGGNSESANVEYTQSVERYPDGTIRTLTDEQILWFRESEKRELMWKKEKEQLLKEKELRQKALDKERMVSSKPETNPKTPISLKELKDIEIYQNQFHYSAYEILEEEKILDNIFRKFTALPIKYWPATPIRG
Briefly: SEC.

Consider B1, for which the percent bound in data set [1] is 100%; in data set [2], 19.8%. The “percent bound (D1/D2 and F/E/G added together)” value in data set [3] stood at 95%; in [4], 59%.

Turning to B2, the percent bound in [1] turned out to be 88.9%.

By stoichiometry N is commonly meant the number of molecules, sites or subunits per partner or assembly. For the molecule B3, the “stoichiometry N” value in the data set “SEC” came out at 6. For the same molecule, in data set [2], the percent bound was determined as 14.1%. Also, in data set [4], the “percent bound (D1/D2 and F/E/G added together)” value was determined as 53.5%.

For B4, the binding result in data set [5], in [6] and in [7] was “binds” throughout.

Turning to B5, the binding result in data set [8] is on record as “binds”.
